Data from PMC4263667, “Nanobody Mediated Inhibition of Attachment of F18 Fimbriae Expressing Escherichia coli” (PLoS ONE, 2014).

B1: NbFedF9 (VHH)
VHH: QVQLQESGGGSVQAGGSLRLSCAASGYTYSSNCMAWFRQVPGKEREGVASINTRGGITYYADSVKGRFTISRDNAKNTVSLQMNSLKPEDTATYYCAAVREATYSDNRCSVRSYTYDYWGQGTQVTVSS
notes: source: E. coli WK6, periplasmic extract, purified (Ni-NTA); not shown: His6, C-terminal, kept
B2: NbFedF12 (VHH)
VHH: QVQLQESGGGSVQAGGSLRLSCAASGNTKSYWMGWFRQAPGKEREGVAVIAGGGAFTYYAESVKGRFTISQDNTKDTVYLAMNSLKPEDTALYYCALRTLNNGGIFLLNSPSSFHYWGQGTQVTVSS
notes: source: E. coli WK6, periplasmic extract, purified (Ni-NTA)
B3: NbFedF7 (VHH)
VHH: QVQLQESGGGSVQAGGSLRLSCTASGYTYRKYCMGWFRQAPGKEREGVACINSGGGTSYYADSVKGRFTISQDNAKDTVFLRMNSLKPEDTAIYYCALSSNSVCPPGHVAWYNDWGQGTQVTVSS
notes: as for B1
B4: NbFedF6 (VHH)
VHH: QVQLQESGGGSVQAGGSLRLSCAASGYTSGRDSMGWFRQAPGKEREGVACIDTSGIVNYADSVKGRFTISQDSAKKTLYLEMNSLKPEDTALYSCATGPFVYGRGCLGQAFYSYWGQGTQVTVSS
notes: as for B1

Biological target: T1, FedF_(15–165), N-terminal lectin domain of the F18 fimbrial tip adhesin FedF (Escherichia coli (F18-fimbriated …, NT647 on surface exposed amine groups (in the MST only)))
T1 construct: also called FedF lectin domain
T1 chain: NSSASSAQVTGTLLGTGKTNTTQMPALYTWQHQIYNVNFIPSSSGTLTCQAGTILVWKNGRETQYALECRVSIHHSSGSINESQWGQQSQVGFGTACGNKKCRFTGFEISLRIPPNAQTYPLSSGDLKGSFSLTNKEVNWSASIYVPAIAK
Experiment: MST
Conditions: both partners purified

Binder | Kd
B1 | 1.58 nM
B2 | 29 nM
B3 | 5.25 nM
B4 | 3.57 nM
